Data: the supplement of paper PMC5998384

Tests used:
HeLa Kyoto [1] = experiment: thermal stability score vs G1/S (z-score of summed log2 fold changes over temperatures); higher = more thermally stable than in G1/S
HeLa Kyoto [2] = experiment: solubility change mitosis vs G1/S (difference of NP-40 vs SDS log2 ratios) (log2 ratio difference); higher = more soluble in mitosis
HeLa Kyoto [3] = experiment: solubility in G1/S (NP-40 vs SDS abundance) (log2 ratio); higher = more soluble; settings: cell cycle stage: G1/S
[4] = cell cycle stage: early G1 (4.5 h after nocodazole release)
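Throughout, for solubility change mitosis vs G1/S (difference of NP-40 vs SDS log2 ratios): synchronized HeLa Kyoto cells (double thymidine block for G1/S, nocodazole release for mitosis), protein amounts in NP-40 versus SDS lysates quantified by mass spectrometry, three biological replicates.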
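Throughout, for solubility in G1/S (NP-40 vs SDS abundance): HeLa Kyoto cells arrested at G1/S by double thymidine block, proteins quantified by TMT10plex mass spectrometry in mild NP-40 versus SDS extracts, three biological replicates.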
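Throughout, for thermal stability score vs G1/S (z-score of summed log2 fold changes over temperatures): synchronized HeLa Kyoto cells, proteins quantified by TMT10plex mass spectrometry, three biological replicates, mitosis taken 0.5 h after nocodazole release, G1/S directly after double thymidine block.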

Sequence | thermal stability score (HeLa Kyoto [1]; [4]) | thermal stability score (HeLa Kyoto [1]; cell cycle stage: mitosis) | solubility change mitosis (log2) (HeLa Kyoto [2]) | solubility in G1/S (log2) (HeLa Kyoto [3])
MDRAPTEQNVKLSAEVEPFIPQKKSPDTFMIPMALPNDNGSVSGVEPTPIPSYLITCYPFVQENQSNRQFPLYNNDIRWQQPNPNPTGPYFAYPIISAQPPVSTEYTYYQLMPAPCAQVMGFYHPFPTPYSNTFQAANTVNAITTECTERPSQLGQVFPLSSHRSRNSNRGSVVPKQQLLQQHIKSKRPLVKNVATQKETNAAGPDSRSKIVLLVDASQQTDFPSDIANKSLSETTATMLWKSKGRRRRASHPTAESSSEQGASEADIDSDSGYCSPKHSNNQPAAGALRNPDSGTMNHVESSMCAGGVNWSNVTCQATQKKPWMEKNQTFSRGGRQTEQRNNSQVGFRCRGHSTSSERRQNLQKRPDNKHLSSSQSHRSDPNSESLYFEDEDGFQELNENGNAKDENIQQKLSSKVLDDLPENSPINIVQTPIPITTSVPKRAKSQKKKALAAALATAQEYSEISMEQKKLQEALSKAAGKKNKTPVQLDLGDMLAALEKQQQAMKARQITNTRPLSYTVVTAASFHTKDSTNRKPLTKSQPCLTSFNSVDIASSKAKKGKEKEIAKLKRPTALKKVILKEREEKKGRLTVDHNLLGSEEPTEMHLDFIDDLPQEIVSQEDTGLSMPSDTSLSPASQNSPYCMTPVSQGSPASSGIGSPMASSTITKIHSKRFREYCNQVLCKEIDECVTLLLQELVSFQERIYQKDPVRAKARRRLVMGLREVTKHMKLNKIKCVIISPNCEKIQSKGGLDEALYNVIAMAREQEIPFVFALGRKALGRCVNKLVPVSVVGIFNYFGAESLFNKLVELTEEARKAYKDMVAAMEQEQAEEALKNVKKVPHHMGHSRNPSAASAISFCSVISEPISEVNEKEYETNWRNMVETSDGLEASENEKEVSCKHSTSEKPSKLPFDTPPIGKQPSLVATGSTTSATSAGKSTASDKEEVKPDDLEWASQQSTETGSLDGSCRDLLNSSITSTTSTLVPGMLEEEEDEDEEEEEDYTHEPISVEVQLNSRIESWVSETQRTMETLQLGKTLNGSEEDNVEQSGEEEAEAPEVLEPGMDSEAWTADQQASPGQQKSSNCSSLNKEHSDSNYTTQTT [SECISBP2L] | 1.54 | 2.5 | 0.0796 | -0.226
MEEGAPRQPGPSQWPPEDEKEVIRRAIQKELKIKEGVENLRRVATDRRHLGHVQQLLRSSNRRLEQLHGELRELHARILLPGPGPGPAEPVASGPRPWAEQLRARHLEALRRQLHVELKVKQGAENMTHTCASGTPKERKLLAAAQQMLRDSQLKVALLRMKISSLEASGSPEPGPELLAEELQHRLHVEAAVAEGAKNVVKLLSSRRTQDRKALAEAQAQLQESSQKLDLLRLALEQLLEQLPPAHPLRSRVTRELRAAVPGYPQPSGTPVKPTALTGTLQVRLLGCEQLLTAVPGRSPAAALASSPSEGWLRTKAKHQRGRGELASEVLAVLKVDNRVVGQTGWGQVAEQSWDQTFVIPLERARELEIGVHWRDWRQLCGVAFLRLEDFLDNACHQLSLSLVPQGLLFAQVTFCDPVIERRPRLQRQERIFSKRRGQDFLRASQMNLGMAAWGRLVMNLLPPCSSPSTISPPKGCPRTPTTLREASDPATPSNFLPKKTPLGEEMTPPPKPPRLYLPQEPTSEETPRTKRPHMEPRTRRGPSPPASPTRKPPRLQDFRCLAVLGRGHFGKVLLVQFKGTGKYYAIKALKKQEVLSRDEIESLYCEKRILEAVGCTGHPFLLSLLACFQTSSHACFVTEFVPGGDLMMQIHEDVFPEPQARFYVACVVLGLQFLHEKKIIYRDLKLDNLLLDAQGFLKIADFGLCKEGIGFGDRTSTFCGTPEFLAPEVLTQEAYTRAVDWWGLGVLLYEMLVGECPFPGDTEEEVFDCIVNMDAPYPGFLSVQGLEFIQKLLQKCPEKRLGAGEQDAEEIKVQPFFRTTNWQALLARTIQPPFVPTLCGPADLRYFEGEFTGLPPALTPPAPHSLLTARQQAAFRDFDFVSERFLEP [PKN3] | -0.36 | -0.411 | 0.0781 | -0.177
MEGLLTRCRALPALATCSRQLSGYVPCRFHHCAPRRGRRLLLSRVFQPQNLREDRVLSLQDKSDDLTCKSQRLMLQVGLIYPASPGCYHLLPYTVRAMEKLVRVIDQEMQAIGGQKVNMPSLSPAELWQATNRWDLMGKELLRLRDRHGKEYCLGPTHEEAITALIASQKKLSYKQLPFLLYQVTRKFRDEPRPRFGLLRGREFYMKDMYTFDSSPEAAQQTYSLVCDAYCSLFNKLGLPFVKVQADVGTIGGTVSHEFQLPVDIGEDRLAICPRCSFSANMETLDLSQMNCPACQGPLTKTKGIEVGHTFYLGTKYSSIFNAQFTNVCGKPTLAEMGCYGLGVTRILAAAIEVLSTEDCVRWPSLLAPYQACLIPPKKGSKEQAASELIGQLYDHITEAVPQLHGEVLLDDRTHLTIGNRLKDANKFGYPFVIIAGKRALEDPAHFEVWCQNTGEVAFLTKDGVMDLLTPVQTV [PARS2] | -2.04 | -2.68 | -0.176 | -0.0434
